Legend:
HA.ELK-1 = assay: EMSA; conditions: not given in material (EMSA as in ref 29; southwestern as in ref 34, modified)
ELK-mUBQ = assay: southwestern; conditions: renatured on nitrocellulose; not given in material (EMSA as in ref 29; southwestern as in ref 34, modified)
ELK-1(K35R);coreSRF = assay: EMSA; conditions: not given in material (EMSA as in ref 29; southwestern as in ref 34, modified)
ELK-1(K70R);coreSRF = assay: EMSA; conditions: not given in material (EMSA as in ref 29; southwestern as in ref 34, modified)
HA.ELK-1;coreSRF = assay: EMSA; conditions: not given in material (EMSA as in ref 29; southwestern as in ref 34, modified)

Substance	binding signal (% (reference)) (HA.ELK-1)	binding signal (fold less than unmodified ELK-1) (ELK-mUBQ)	binding signal (% of WT ELK-1) (ELK-1(K35R);coreSRF)	binding signal (% of WT ELK-1) (ELK-1(K70R);coreSRF)	binding signal (% (reference)) (HA.ELK-1;coreSRF)
E74 site	100	4	–	–	–
CFOS SRE	–	–	80	80	100

— article PMC6511843
